From the supplement of paper PMC12764529
± gives the half width of the 95% confidence interval.

Legend:
[1] = folding stability dG unfold (combined trypsin and chymotrypsin); higher = more stable
How it was run: (§1)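 Mini-proteins designed to be under 80 residues and free of cysteine were carried in a PA-tagged cDNA display construct and digested with trypsin and with chymotrypsin. Each protease was applied at 11 threefold-diluted concentrations, alongside a no-protease condition, before sequencing. K50 came from Bayesian fitting of the sequencing counts, and unfolding free energy was obtained by comparing it with a sequence-predicted unfolded-state K50 and a shared folded-state K50, for each protease separately or for both together. Designs were retained only if their AlphaFold2 dimer inter-PAE exceeded 15.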

[2] = folding stability dG unfold from chymotrypsin proteolysis; higher = more stable
How it was run: as §1

[3] = folding stability dG unfold from trypsin proteolysis; higher = more stable
How it was run: as §1

Sequence | folding stability dG unfold [1] | folding stability dG unfold [2] | folding stability dG unfold [3]
SADEALRRLLENMTPEELAALLAPAVPGPPVEVLVVPREVLPEVLRRLREEFDVEFEEEGDFVRIVVRGSAG [r14_7_TrMRF] | 2.73 ± 0.04 kcal/mol | 2.915 ± 0.016 kcal/mol | 2.28 ± 0.029 kcal/mol
SADHKFEIDINVFEHDGWRYIMIPVKYDDPQDVDEAAEKILREFGIPPNFNVNVMRSPNEVWINIRIPYSAG [r14_804_TrROS] | 2.53 ± 0.15 kcal/mol | 2.85 ± 0.077 kcal/mol | 2.08 ± 0.06 kcal/mol
SADLAAELEEGGFVVTITETVVSVTPQTLEKDSFVVEKDVVTTITVTPPPVAPPPPDPANLRDAAGAPVSAG [r14_569_JUSTAS] | 0.798 ± 0.084 kcal/mol | 1.01 ± 0.023 kcal/mol | -0.0411 ± 0.041 kcal/mol
SADLAKNIAKKLNPDIKDVQIKDIELQPNPDNGYPVIKVELEVKMNDGPYKKSIWFMPNGFQIKIQPVPSAG [r14_397_TrROS] | 1.44 ± 0.29 kcal/mol | 1.77 ± 0.21 kcal/mol | 0.783 ± 0.17 kcal/mol
SADPGDTVELEFWLPPGMNPEFVEQMEDEIRNILRDLGLEVDVKVEPDPDNGYVPVTITITKEQLKDLFSAG [r14_602_TrROS] | 1.82 ± 0.18 kcal/mol | 1.74 ± 0.1 kcal/mol | 1.93 ± 0.12 kcal/mol
SADPLSSILSQALSVEFDPETGKVTITTKDKSIVEKALEEGAENATLTESEDDIYTATIDLPPLPEGVLSAG [r14_115_TrMRF] | 0.12 ± 0.39 kcal/mol | -0.155 ± 0.085 kcal/mol | 0.576 ± 0.12 kcal/mol
SAEEELRKALENMSDEELEALLRAAAPPPKTVTIRLSEEELEKLAQELADEYNVTVTVEVDGKTLTLTLSAG [r14_7_TrROS_Hall] | 1.76 ± 0.049 kcal/mol | 1.74 ± 0.051 kcal/mol | 1.69 ± 0.024 kcal/mol
SAEELARRLRELGLEVEIVRIERERRPDGTIRIEVRLDGELVAELEVRLPPPPPPVEVVRDADGRERRVRSA [r9_442_TrROS_Hall] | 1.9 ± 0.27 kcal/mol | 1.82 ± 0.4 kcal/mol | 1.63 ± 0.18 kcal/mol
SAEEPEVVRLEIRITVVERDEDGRLREREVTLEVEVLPDGRVVIRVDGRVFVIDLETGELVEVLEDVEPSAG [r14_821_TrROS_Hall] | 4.02 ± 0.089 kcal/mol | 4.14 ± 0.081 kcal/mol | 3.77 ± 0.099 kcal/mol
SAEKEYKVKVKVKIEIVELSEEELENLPPGALVIEVDGKLYLMRIEVEEVEVEEVPEEPEVDEETGELLSAG [r14_126_TrROS_Hall] | 3.33 ± 0.17 kcal/mol | 3.86 ± 0.1 kcal/mol | 2.28 ± 0.16 kcal/mol
SAEKIYYKVKVKVEIEKDGKPDIELEIEFIVSPEIPPEKVKEFIEKFLKSKGYKIKKIEIETEPIPSLESAG [r14_979_TrMRF] | 5.03 ± 0.29 kcal/mol | 4.86 ± 0.13 kcal/mol | 3.95 ± 0.31 kcal/mol
SAEKKTVRVVLEITLPPGLKPGDTITVKIEVDGKVYEAKILRVEEVPPGQTVRIVLELPAEDVKITIEPSAG [r14_554_TrROS_Hall] | 3.81 ± 0.071 kcal/mol | 4.06 ± 0.08 kcal/mol | 3.21 ± 0.079 kcal/mol
SAEKPPVVTLEIEIEIVVKDENGKTHKRKFRLTVTFYPDGTVEISIYDENGELIETITLPPGATLEELLSAG [r14_559_TrROS_Hall] | 3.61 ± 0.11 kcal/mol | 3.99 ± 0.15 kcal/mol | 2.26 ± 0.083 kcal/mol
SAELLEELLKKAREEAEKEGKKVEIHLVLVVEKDENGKVTFTEEEKELIKKLKEAFPDVEIKIEVVELPSAG [r14_636_TrROS_Hall] | 3.28 ± 0.13 kcal/mol | 3.45 ± 0.16 kcal/mol | 2.83 ± 0.18 kcal/mol
SAELPPGMRLVIDDIEPMRNNGKPMLMIKLSIYDPAKPGKEITHWTIMVTNDNIMAIQPTTYRIPPDDISAG [r14_651_TrROS] | 2.57 ± 0.22 kcal/mol | 2.63 ± 0.12 kcal/mol | 2.64 ± 0.075 kcal/mol
SAEMTEEERARRLAEKLREELEELGVEKVEIEFDEEERRVTVRVTLSPEVREKLAERLGLSREELDALLSAG [r14_688_TrROS_Hall] | 3.43 ± 0.079 kcal/mol | 2.914 ± 0.023 kcal/mol | 4.1 ± 0.1 kcal/mol
SAEPITITWPNGMQIPLYKDDDGEIEIKIQMYDPKDGKPVGEQEQRIDPDDNTIEFRFPNGWPFSITIPDSA [r9_56_TrROS] | 0.473 ± 0.22 kcal/mol | 0.0536 ± 0.57 kcal/mol | 0.835 ± 0.11 kcal/mol
SAERTPVREADIPIPGLPVVVRVRTYAEAVELARKSGVPVVVETVEVEVFLPDGSRVRFPAPGLLVLDGSAG [r14_100_TrMRF] | 1.5 ± 0.036 kcal/mol | 1.55 ± 0.055 kcal/mol | 1.41 ± 0.0081 kcal/mol

Sequence | folding stability dG unfold [1] | folding stability dG unfold [2] | folding stability dG unfold [3]
SAETVTFRVGDVEIVARRLPDGYVVVTEKVPEEYPEAELVLSLVRVYPDGTVEVESRLYRIDPETGVIGSAG [r14_724_TrMRF] | 2.48 ± 0.17 kcal/mol | 2.67 ± 0.053 kcal/mol | 2.12 ± 0.049 kcal/mol
SAEVELKPDEELEFEFPDSQVKISYVPGTGVITTTTTFTTPDGTVVYKTTTIKKEGKEVTSTTVSLAEASSA [r9_881_JUSTAS] | 1.17 ± 0.12 kcal/mol | 1.52 ± 0.067 kcal/mol | 0.389 ± 0.054 kcal/mol
SAEVRPDEVLRIEVRLRVGDVEFTAEAEIPAGLSEEEIREAVERIREEAERLAERLRRLPPLRPPEELLSAG [r14_70_TrMRF] | 2.64 ± 0.43 kcal/mol | 2.96 ± 0.14 kcal/mol | 1.63 ± 0.086 kcal/mol
SAEVRTVTDANGTQRTVTKTPDGTETVTTRPVPAPPPPPTVTVEVEYDAENGTLTVRLPDGSKLEFTFEDSA [r9_56_TrROS_Hall] | 0.742 ± 0.26 kcal/mol | 0.982 ± 0.046 kcal/mol | -0.118 ± 0.23 kcal/mol
SAEVRVEIVEVDEERGVIRIEITVPEDLPEEEILEELARRLEELARERGYEVRIERREDGTYRIEIRFPSAG [r14_865_TrROS_Hall] | 4.25 ± 0.11 kcal/mol | 4.26 ± 0.071 kcal/mol | 4.18 ± 0.16 kcal/mol
SAEVVIVIEPGMTEEQVRARLKAALEEALRKGKKVKKIVVKSEEAARRIRDLLKELGVPEEDVEVVLLPSAG [r14_589_TrROS_Hall] | 4.93 ± 0.36 kcal/mol | 3.45 ± 0.17 kcal/mol | 4.92 ± 0.51 kcal/mol
SAEYTPVGPNEDAEVWEVPNLGKLFTIDPKDDVVEITEVHFDDGDLSPHPHTVRVDVPEEDRDRLRDLLSAG [r14_245_TrMRF] | -0.213 ± 0.14 kcal/mol | -1.11 ± 0.58 kcal/mol | 0.0643 ± 0.06 kcal/mol
SAGAEVEVVELTDEEIEALAKELNPDVTIEVVVVRVPPPPEKVEVRDPETGETVTLTVTPDGEIRAEKSAGG [r19_70_TrROS_Hall] | 0.0774 ± 0.35 kcal/mol | -0.235 ± 0.16 kcal/mol | 0.624 ± 0.091 kcal/mol
SAGAKVEIEFEGNKVTAKIEFGEGTVTVEGEVKLLPDGSALFKPKIYKDGKKIGEFTVLLDLPEGAEVLSAG [r5_221_TrMRF] | 1.84 ± 0.16 kcal/mol | 1.95 ± 0.057 kcal/mol | 1.37 ± 0.062 kcal/mol
SAGAMLTLELTVEADSPEEAIERAKEIAKELIKKEYPELSKNTKIEKITAEPTPGPEVKVTITIKIDPGSAG [r5_320_JUSTAS] | 4.32 ± 0.22 kcal/mol | 3.61 ± 0.18 kcal/mol | 4.42 ± 0.17 kcal/mol
SAGAMPPVVEVAPVEGEGLLRVTVPVPTSDVVRVTVDLGDRRLEYTLPRDASLEVSTADAEVRVAVELVSAG [r14_96_JUSTAS] | 0.638 ± 0.056 kcal/mol | 0.639 ± 0.1 kcal/mol | 0.5 ± 0.031 kcal/mol
SAGAMVTHTITVKIDPSELDKLEEILEKIKNSGPVKAIEPVSFEPGTGVYTVKVTADPATIKLVEEALKSAG [r5_193_JUSTAS] | 4.24 ± 0.069 kcal/mol | 4.14 ± 0.062 kcal/mol | 4.51 ± 0.28 kcal/mol
SAGARIVPIKINLKWNPDNGQLEVPIEMYVNNHPVEMEARFDPEDPGKIEFEITYPGNGQEIRASIPLPSAG [r14_178_TrROS] | 0.467 ± 0.26 kcal/mol | -0.0473 ± 0.31 kcal/mol | 0.951 ± 0.098 kcal/mol
SAGATATPPAVRVATARLPLPFGTGTEVTVTTYSDGSATVTARFPDGVVATAFVSPDGSAVVTVAPAGGSAG [r5_168_TrMRF] | 2.41 ± 0.061 kcal/mol | 2.955 ± 0.024 kcal/mol | 0.992 ± 0.064 kcal/mol
SAGATPTTLSFTDPEGKKIANVTVTVLPGGRQEASITNSDSNESYTAEYDPATGTWTLTFPDGTTLTVGSAG [r5_809_JUSTAS] | 1.58 ± 0.059 kcal/mol | 1.75 ± 0.032 kcal/mol | 1.15 ± 0.039 kcal/mol
SAGATTTTTTTNPADDTTVTTTTTTTGNTSTVTSTSTSGSTSTLTTTTVTFTSPTTTTTTTTTTPVPSSAGG [r19_292_JUSTAS] | 0.264 ± 0.074 kcal/mol | -0.45 ± 0.22 kcal/mol | 0.679 ± 0.03 kcal/mol
SAGAVELPPGVAAVERDPETGVVTATYPDGTVTRYTVSTEWDPTVGRTRPRVTVEVWSPDSRISTRDLPSAG [r5_109_JUSTAS] | 0.527 ± 0.12 kcal/mol | 0.799 ± 0.13 kcal/mol | 0.119 ± 0.31 kcal/mol
SAGAVRPDEPVTVTVTVEVDPETGFVRVTFDAAAPDGITVEALIPPDGPVLVRVRRPGSRETVEVVLPASAG [r5_55_TrMRF] | 3.06 ± 0.072 kcal/mol | 3.31 ± 0.045 kcal/mol | 2.57 ± 0.13 kcal/mol
